Laboratory results: patent US20260125454A1 (SHANGHAI JUNSHI BIOSCIENCES, published 2026)

T1: Biotin-huCGRPaSA (human, not fully specified; biotin (position not given))
T1 construct: exact construct ('aSA') not explained; also called Biotin CGRPaSA; full-length (1-37) CGRP
T1 peptide: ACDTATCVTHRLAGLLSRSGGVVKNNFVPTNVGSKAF

B1: hu37 (antibody, V domains shown)
VH: QVQLVQSGAEVKKPGASVKVSCKASGYTFIDFNMHWVRQAPGQRLEWMGYIYPYNGDVVYNQNFTNRVTLTVDTSSSTAYMELSSLRSEDTAVYYCAREGLGGYWGQGTLVTVSS
VL: DIVLTQSPDSLAVSLGERATINCKASQNIDYDGYTYLNWYQQKPGQPPKVLIYSIFNLESGVPDRFSGSGSGTDFTLTISSLQAEDVAVYYCQQSNEVPYTFGQGTKLEIK
notes: 1F5 HC-1/3E5 LC-1
B2: hu169 (antibody, V domains shown)
VH: QVQLVQSGAEVKKPGASVKVSCKASGYTFTDYNMHWVRQAPGQRLEWMGYISPYNGGTAYNQKFKFRVTLTVDTSSSTAYMELSSLRSEDTAVYYCAREGLGGYWGQGTLVTVSS
VL: DIQLTQSPSSLSASVGDRVTITCKASQNIDYGGYSYMNWYQQKPGKAPKVLIYSVFNLESGVPSRFSGSGSGTDFTLTISSLQPEDFATYYCQQSNEAPYTFGQGTKLEIK
notes: 3E5 HC-2/3H10 LC2-2
B3: hu190 (antibody, V domains shown)
VH: QVQLVQSGAEVKKPGASVKVSCKTSGYTFTDYNMHWVRQAPGQRLEWMGYISPYNAGTAYNQKFKFRVTLTVDTSSSTAYMELSSLRSEDTAVYYCAREGLGGYWGQGTLVTVSS
VL: DIVLTQSPDSLAVSLGERATINCKASQNIDFDGYAYMNWYQHKPGQPPKVLIYSVFNLESGVPDRFSGSGSGTDFTLTISSLQAEDVAVYYCQQSHEVPYTFGQGTKLEIK
notes: 3E5 HC-4/1F5 LC1-4
B4: hu164 (antibody, V domains shown)
VH: QVQLVQSGAEVKKPGASVKVSCKASGYTFTDYNMHWVRQAPGQRLEWMGYISPYNGGTAYNQKFKFRVTLTVDTSSSTAYMELSSLRSEDTAVYYCAREGLGGYWGQGTLVTVSS
VL: DIVLTQSPDSLAVSLGERATINCKASQNIDFDGYAYMNWYQHKPGQPPKVLIYSVFNLESGVPDRFSGSGSGTDFTLTISSLQAEDVAVYYCQQSHEVPYTFGQGTKLEIK
notes: 3E5 HC-2/1F5 LC1-4
B5: hu155 (antibody, V domains shown)
VH: QVQLVQSGAEVKKPGASVKVSCKTSGYTFTDYNMHWVRQAPGQRLEWMGYISPYNGGTAYNQKFKFRVTLTVDTSSSTAYMELSSLRSEDTAVYYCAREGLGGYWGQGTLVTVSS
VL: DIVLTQSPDSLAVSLGERATINCKASQNIDYGGYSYMNWYQQKPGQPPKVLIYSVFNLESGVPDRFSGSGSGTDFTLTISSLQAEDVAVYYCQQSNEAPYTFGQGTKLEIK
notes: 3E5 HC-1/3H10 LC2-1
B6: hu150 (antibody, V domains shown)
VH: QVQLVQSGAEVKKPGASVKVSCKTSGYTFTDYNMHWVRQAPGQRLEWMGYISPYNGGTAYNQKFKFRVTLTVDTSSSTAYMELSSLRSEDTAVYYCAREGLGGYWGQGTLVTVSS
VL: DIVLTQSPASLAVSPGQRATITCKASQNIDFDGYAYMNWYQQKPGQPPKVLIYSVFNLESGVPARFSGSGSGTDFTLTINPVEADDTANYYCQQSHEVPYTFGQGTKLEIK
notes: 3E5 HC-1/1F5 LC1-3
B7: hu156 (antibody, V domains shown)
VH: QVQLVQSGAEVKKPGASVKVSCKTSGYTFTDYNMHWVRQAPGQRLEWMGYISPYNGGTAYNQKFKFRVTLTVDTSSSTAYMELSSLRSEDTAVYYCAREGLGGYWGQGTLVTVSS
VL: DIQLTQSPSSLSASVGDRVTITCKASQNIDYGGYSYMNWYQQKPGKAPKVLIYSVFNLESGVPSRFSGSGSGTDFTLTISSLQPEDFATYYCQQSNEAPYTFGQGTKLEIK
notes: 3E5 HC-1/3H10 LC2-2
B8: hu168 (antibody, V domains shown)
VH: QVQLVQSGAEVKKPGASVKVSCKASGYTFTDYNMHWVRQAPGQRLEWMGYISPYNGGTAYNQKFKFRVTLTVDTSSSTAYMELSSLRSEDTAVYYCAREGLGGYWGQGTLVTVSS
VL: DIVLTQSPDSLAVSLGERATINCKASQNIDYGGYSYMNWYQQKPGQPPKVLIYSVFNLESGVPDRFSGSGSGTDFTLTISSLQAEDVAVYYCQQSNEAPYTFGQGTKLEIK
notes: 3E5 HC-2/3H10 LC2-1
B9: hu177 (antibody, V domains shown)
VH: QVQLVQSGAEVKKPGASVKVSCKASGYTFTDYNMHWVRQAPGQGLEWMGYISPYNGGTAYNQKFKFRVTLTVDTSSSTAYMELSRLRSDDTVVYYCAREGLGGYWGQGTLVTVSS
VL: DIVLTQSPDSLAVSLGERATINCKASQNIDFDGYAYMNWYQHKPGQPPKVLIYSVFNLESGVPDRFSGSGSGTDFTLTISSLQAEDVAVYYCQQSHEVPYTFGQGTKLEIK
notes: 3E5 HC-3/1F5 LC1-4
B10: hu194 (antibody, V domains shown)
VH: QVQLVQSGAEVKKPGASVKVSCKTSGYTFTDYNMHWVRQAPGQRLEWMGYISPYNAGTAYNQKFKFRVTLTVDTSSSTAYMELSSLRSEDTAVYYCAREGLGGYWGQGTLVTVSS
VL: DIVLTQSPDSLAVSLGERATINCKASQNIDYGGYSYMNWYQQKPGQPPKVLIYSVFNLESGVPDRFSGSGSGTDFTLTISSLQAEDVAVYYCQQSNEAPYTFGQGTKLEIK
notes: 3E5 HC-4/3H10 LC2-1
B11: hu181 (antibody, V domains shown)
VH: QVQLVQSGAEVKKPGASVKVSCKASGYTFTDYNMHWVRQAPGQGLEWMGYISPYNGGTAYNQKFKFRVTLTVDTSSSTAYMELSRLRSDDTVVYYCAREGLGGYWGQGTLVTVSS
VL: DIVLTQSPDSLAVSLGERATINCKASQNIDYGGYSYMNWYQQKPGQPPKVLIYSVFNLESGVPDRFSGSGSGTDFTLTISSLQAEDVAVYYCQQSNEAPYTFGQGTKLEIK
notes: 3E5 HC-3/3H10 LC2-1
B12: hu128 (antibody, V domains shown)
VH: QVQLVQSGAEVKKPGASVKVSCKASGYTFTDYNMHWVRQAPGQGLEWMGNIYPYNGGTVYNQKFNNRVTLTVDTSSSTAYMELRSLRSDDTAVYYCAREGLGGYWGQGTLVTVSS
VL: DIVLTQSPDSLAVSLGERATINCKASQNIDYDGYTYLNWYQQKPGQPPKVLIYSIFNLESGVPDRFSGSGSGTDFTLTISSLQAEDVAVYYCQQSNEVPYTFGQGTKLEIK
notes: 2B8 HC1-2/3E5 LC-1
B13: hu64 (antibody, V domains shown)
VH: QVQLVQSGAEVKKPGASVKVSCKASGYTFTDFNMHWVRQAPGQGLEWMGYIYPYNGDVVYNQNFTNRVTLTVDTSSSTAYMELRSLRSDDTAVYYCAREGLGGYWGQGTLVTVSS
VL: DIVLTQSPDSLAVSLGERATINCKASQNIDYGGYSYMNWYQQKPGQPPKVLIYSVFNLESGVPDRFSGSGSGTDFTLTISSLQAEDVAVYYCQQSNEAPYTFGQGTKLEIK
notes: 1F5 HC-3/3H10 LC2-1
B14: hu50 (antibody, V domains shown)
VH: QVQLVQSGAEVKKPGASVKVSCKASGYTFTDFNMHWVRQAPGQRLEWMGYIYPYNGDVVYNQNFTNRVTLTVDTSSSTAYMELSSLRSEDTAVYYCAREGLGGYWGQGTLVTVSS
VL: DIVLTQSPDSLAVSLGERATINCKASQNIDYDGYTYLNWYQQKPGQPPKVLIYSIFNLESGVPDRFSGSGSGTDFTLTISSLQAEDVAVYYCQQSNEVPYTFGQGTKLEIK
notes: 1F5 HC-2/3E5 LC-1
B15: hu63 (antibody, V domains shown)
VH: QVQLVQSGAEVKKPGASVKVSCKASGYTFTDFNMHWVRQAPGQGLEWMGYIYPYNGDVVYNQNFTNRVTLTVDTSSSTAYMELRSLRSDDTAVYYCAREGLGGYWGQGTLVTVSS
VL: DIVLTQSPDSLAVSLGERATINCKASQNIDYDGYTYLNWYQQKPGQPPKVLIYSIFNLESGVPDRFSGSGSGTDFTLTISSLQAEDVAVYYCQQSNEVPYTFGQGTKLEIK
notes: 1F5 HC-3/3E5 LC-1
B16: hu89 (antibody, V domains shown)
VH: QVQLVQSGAEVKKPGASVKVSCKASGYTFIDFNMHWVRQAPGQRLEWMGYIYPYNADVVYNQDFTNRVTLTVDTSSSTAYMELSSLRSEDTAVYYCAREGLGGYWGQGTLVTVSS
VL: DIVLTQSPDSLAVSLGERATINCKASQNIDYDGYTYLNWYQQKPGQPPKVLIYSIFNLESGVPDRFSGSGSGTDFTLTISSLQAEDVAVYYCQQSNEVPYTFGQGTKLEIK
notes: 1F5 HC-5/3E5 LC-1
B17: hu182 (antibody, V domains shown)
VH: QVQLVQSGAEVKKPGASVKVSCKASGYTFTDYNMHWVRQAPGQGLEWMGYISPYNGGTAYNQKFKFRVTLTVDTSSSTAYMELSRLRSDDTVVYYCAREGLGGYWGQGTLVTVSS
VL: DIQLTQSPSSLSASVGDRVTITCKASQNIDYGGYSYMNWYQQKPGKAPKVLIYSVFNLESGVPSRFSGSGSGTDFTLTISSLQPEDFATYYCQQSNEAPYTFGQGTKLEIK
notes: 3E5 HC-3/3H10 LC2-2
B18: hu189 (antibody, V domains shown)
VH: QVQLVQSGAEVKKPGASVKVSCKTSGYTFTDYNMHWVRQAPGQRLEWMGYISPYNAGTAYNQKFKFRVTLTVDTSSSTAYMELSSLRSEDTAVYYCAREGLGGYWGQGTLVTVSS
VL: DIVLTQSPASLAVSPGQRATITCKASQNIDFDGYAYMNWYQQKPGQPPKVLIYSVFNLESGVPARFSGSGSGTDFTLTINPVEADDTANYYCQQSHEVPYTFGQGTKLEIK
notes: 3E5 HC-4/1F5 LC1-3
B19: hu195 (antibody, V domains shown)
VH: QVQLVQSGAEVKKPGASVKVSCKTSGYTFTDYNMHWVRQAPGQRLEWMGYISPYNAGTAYNQKFKFRVTLTVDTSSSTAYMELSSLRSEDTAVYYCAREGLGGYWGQGTLVTVSS
VL: DIQLTQSPSSLSASVGDRVTITCKASQNIDYGGYSYMNWYQQKPGKAPKVLIYSVFNLESGVPSRFSGSGSGTDFTLTISSLQPEDFATYYCQQSNEAPYTFGQGTKLEIK
notes: 3E5 HC-4/3H10 LC2-2
B20: hu185 (antibody, V domains shown)
VH: QVQLVQSGAEVKKPGASVKVSCKTSGYTFTDYNMHWVRQAPGQRLEWMGYISPYNAGTAYNQKFKFRVTLTVDTSSSTAYMELSSLRSEDTAVYYCAREGLGGYWGQGTLVTVSS
VL: EIVLTQSPATLSLSPGERATLSCKASQNIDYDGYAYLNWYQQKPGQAPRVLIYSVFNLESGIPARFSGSGSGTDFTLTISSLEPEDFAVYYCQQSNEFPYTFGQGTKLEIK
notes: 3E5 HC-4/1A2 LC2-3

Assays:
Biotin-huCGRPaSA = biological target: T1, Biotin-huCGRPaSA; experiment: ELISA, supernatant; relative to chimeric C245
Procedure, shortened: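 Plates coated with biotin-CGRPaSA at 1.0 μg/mL (90 min, 37°C) and blocked with 2% BSA. Humanized antibodies and chimeric C245 reference, 2.5-fold serial dilutions from 1000 ng/mL, bound 60 min at 37°C. Detection by HRP anti-human IgG (Fc), TMB 15 min, read at 450/620 nm.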

CGRP antigen = experiment: cell-based or functional assay

| Binder | Relative binding activity, % (Biotin-huCGRPaSA) | IC50 (CGRP antigen) | relative activity (%) vs Ref(TEVA) (CGRP antigen) |
| --- | --- | --- | --- |
| B1 | 142% | 0.0784 µg/mL | 46% |
| B2 | 16% |  |  |
| B3 | 34% |  |  |
| B4 | 56% |  |  |
| B5 | 74% |  |  |
| B6 | 64% |  |  |
| B7 | 32% |  |  |
| B8 | 68% |  |  |
| B9 | 25% |  |  |
| B10 | 98% |  |  |
| B11 | 67% |  |  |
| B12 | 117% | 0.109 µg/mL | 28% |
| B13 | 116% | 0.0699 µg/mL | 44% |
| B14 | 132% | 0.0668 µg/mL | 46% |
| B15 | 122% | 0.05 µg/mL | 62% |
| B16 | 112% | 0.0979 µg/mL | 48% |
| B17 | 31% |  |  |
| B18 | 73% |  |  |
| B19 | 23% |  |  |
| B20 | 19% |  |  |
